Results taken from the supplement of paper PMC10065799, “High-throughput profiling of sequence recognition by tyrosine kinases and SH2 domains using bacterial peptide display” (eLife, 2023).

Experiments:
[1] = target: Grb2 SH2 (UniProt P62993); assay: SH2 binding enrichment of the phosphorylated peptide, bacterial display (enrichment ratio); higher = better substrate or ligand; peptides without Tyr show the background
[2] = target: c-Src SH2; assay: as above
[3] = target: SHP2-C SH2; assay: as above
[4] = target: Fes (UniProt P07332); assay: phosphorylation enrichment, bacterial display (enrichment ratio); higher = better substrate or ligand; peptides without Tyr show the background
[5] = test system: c-Abl (mouse); assay: as above
[6] = target: Hck (UniProt P08631); assay: as above
[7] = target: FGFR1 (UniProt P11362); assay: as above
[8] = test system: Fer (mouse); assay: as above
[9] = target: MERTK (UniProt Q12866); assay: as above
[10] = target: FGFR3 (UniProt P22607); assay: as above
[11] = test system: AncSZ; assay: as above
[12] = test system: c-Src; assay: as above
[13] = target: EPHB1 (UniProt P54762); assay: as above
[14] = target: Jak2 (UniProt O60674); assay: as above
[15] = target: EPHB2 (UniProt P29323); assay: as above
[16] = target: Fyn (UniProt P06241); assay: as above
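Throughout, for SH2 binding enrichment of the phosphorylated peptide, bacterial display: peptide library displayed on the E. coli surface as eCPX fusions, selected cells deep-sequenced, score is each peptide's frequency after selection divided by its frequency in the input.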
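Throughout, for phosphorylation enrichment, bacterial display: 11-residue human phosphosite peptides and single-mutation variants displayed on the E. coli surface, counted by deep sequencing, each peptide's frequency after selection divided by its frequency in the unselected input library; frequency after pTyr selection over input frequency; kinase dosed for 20-30% of maximal phosphorylation in three min.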

Chain of FGFR1 (P11362 whole entry, looked up): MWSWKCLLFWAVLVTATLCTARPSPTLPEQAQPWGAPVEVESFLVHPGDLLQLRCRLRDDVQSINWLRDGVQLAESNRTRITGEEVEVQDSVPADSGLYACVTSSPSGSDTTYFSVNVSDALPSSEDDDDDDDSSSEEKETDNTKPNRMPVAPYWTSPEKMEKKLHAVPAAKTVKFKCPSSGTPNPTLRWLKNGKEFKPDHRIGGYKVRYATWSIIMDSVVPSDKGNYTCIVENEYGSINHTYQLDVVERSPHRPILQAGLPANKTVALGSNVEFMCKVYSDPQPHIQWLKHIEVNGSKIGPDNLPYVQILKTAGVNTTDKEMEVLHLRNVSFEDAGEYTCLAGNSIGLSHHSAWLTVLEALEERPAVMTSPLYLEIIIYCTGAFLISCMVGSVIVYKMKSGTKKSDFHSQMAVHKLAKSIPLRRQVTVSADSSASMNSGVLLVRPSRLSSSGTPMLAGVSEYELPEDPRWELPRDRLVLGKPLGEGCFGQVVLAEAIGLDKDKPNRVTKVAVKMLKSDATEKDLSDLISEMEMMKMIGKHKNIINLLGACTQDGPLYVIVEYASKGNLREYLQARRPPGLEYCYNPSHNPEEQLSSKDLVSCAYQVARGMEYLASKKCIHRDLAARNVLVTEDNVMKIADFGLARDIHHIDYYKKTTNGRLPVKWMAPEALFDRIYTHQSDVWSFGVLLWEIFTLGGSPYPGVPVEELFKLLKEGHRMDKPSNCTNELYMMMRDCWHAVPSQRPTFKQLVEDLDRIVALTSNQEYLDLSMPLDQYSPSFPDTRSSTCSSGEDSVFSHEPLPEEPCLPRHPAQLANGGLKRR
Chain of Fes (P07332 whole entry, looked up): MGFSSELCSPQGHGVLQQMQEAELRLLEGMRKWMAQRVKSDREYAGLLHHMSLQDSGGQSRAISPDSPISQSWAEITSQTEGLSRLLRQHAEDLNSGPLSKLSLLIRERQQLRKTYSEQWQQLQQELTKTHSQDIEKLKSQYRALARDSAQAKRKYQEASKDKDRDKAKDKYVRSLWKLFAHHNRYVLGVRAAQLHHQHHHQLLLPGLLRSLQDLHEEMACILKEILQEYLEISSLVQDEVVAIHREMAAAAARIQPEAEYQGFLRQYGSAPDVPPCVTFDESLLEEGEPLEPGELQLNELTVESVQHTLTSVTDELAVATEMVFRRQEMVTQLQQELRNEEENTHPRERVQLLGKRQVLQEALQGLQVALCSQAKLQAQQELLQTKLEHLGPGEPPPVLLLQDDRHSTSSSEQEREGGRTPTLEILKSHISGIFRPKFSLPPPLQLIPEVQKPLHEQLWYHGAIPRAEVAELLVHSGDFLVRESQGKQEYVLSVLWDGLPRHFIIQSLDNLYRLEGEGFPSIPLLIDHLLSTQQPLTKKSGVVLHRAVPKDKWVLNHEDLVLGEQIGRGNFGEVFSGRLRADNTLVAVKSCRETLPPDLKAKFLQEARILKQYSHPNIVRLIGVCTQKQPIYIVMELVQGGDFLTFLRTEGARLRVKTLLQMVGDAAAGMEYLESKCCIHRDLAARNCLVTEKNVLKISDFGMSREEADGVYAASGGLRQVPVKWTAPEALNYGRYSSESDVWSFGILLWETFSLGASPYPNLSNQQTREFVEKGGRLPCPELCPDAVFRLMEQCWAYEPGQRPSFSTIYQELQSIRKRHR
Chain of FGFR3 (P22607 whole entry, looked up): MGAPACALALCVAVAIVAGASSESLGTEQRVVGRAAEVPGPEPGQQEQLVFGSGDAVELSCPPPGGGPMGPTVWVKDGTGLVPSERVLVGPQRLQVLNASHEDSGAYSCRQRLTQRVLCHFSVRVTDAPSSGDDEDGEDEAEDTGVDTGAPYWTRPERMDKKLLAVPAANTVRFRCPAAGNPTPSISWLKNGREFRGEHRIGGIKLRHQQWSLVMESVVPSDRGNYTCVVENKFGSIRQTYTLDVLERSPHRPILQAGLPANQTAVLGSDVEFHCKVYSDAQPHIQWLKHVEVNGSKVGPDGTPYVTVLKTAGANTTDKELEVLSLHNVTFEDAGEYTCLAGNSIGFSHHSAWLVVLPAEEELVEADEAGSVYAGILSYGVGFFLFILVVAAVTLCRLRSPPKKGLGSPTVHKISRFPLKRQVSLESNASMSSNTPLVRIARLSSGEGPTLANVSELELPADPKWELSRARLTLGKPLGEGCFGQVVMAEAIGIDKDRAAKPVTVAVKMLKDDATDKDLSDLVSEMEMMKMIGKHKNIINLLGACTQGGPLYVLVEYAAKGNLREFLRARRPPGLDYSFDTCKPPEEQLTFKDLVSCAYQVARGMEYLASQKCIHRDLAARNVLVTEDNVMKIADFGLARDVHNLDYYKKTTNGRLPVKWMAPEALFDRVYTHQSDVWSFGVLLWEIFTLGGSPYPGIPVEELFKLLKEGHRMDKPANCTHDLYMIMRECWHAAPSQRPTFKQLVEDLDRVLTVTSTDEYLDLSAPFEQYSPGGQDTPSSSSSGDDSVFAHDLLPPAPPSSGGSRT
Chain of Hck (P08631 whole entry, looked up): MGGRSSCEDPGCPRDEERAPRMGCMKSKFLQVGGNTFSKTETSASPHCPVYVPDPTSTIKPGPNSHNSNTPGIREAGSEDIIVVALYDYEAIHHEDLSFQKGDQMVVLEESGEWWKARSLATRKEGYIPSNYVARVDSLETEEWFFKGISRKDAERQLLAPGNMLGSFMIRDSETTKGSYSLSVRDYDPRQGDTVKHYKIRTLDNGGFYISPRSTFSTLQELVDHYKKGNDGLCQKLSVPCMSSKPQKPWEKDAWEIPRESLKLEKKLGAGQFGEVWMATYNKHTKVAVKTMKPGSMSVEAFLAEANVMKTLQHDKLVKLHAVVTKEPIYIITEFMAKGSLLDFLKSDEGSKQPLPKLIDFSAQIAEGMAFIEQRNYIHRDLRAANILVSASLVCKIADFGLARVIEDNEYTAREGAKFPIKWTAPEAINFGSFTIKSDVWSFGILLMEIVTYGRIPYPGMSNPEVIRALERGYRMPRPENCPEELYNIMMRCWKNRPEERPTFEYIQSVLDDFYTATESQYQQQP
Chain of EPHB2 (P29323 whole entry, looked up): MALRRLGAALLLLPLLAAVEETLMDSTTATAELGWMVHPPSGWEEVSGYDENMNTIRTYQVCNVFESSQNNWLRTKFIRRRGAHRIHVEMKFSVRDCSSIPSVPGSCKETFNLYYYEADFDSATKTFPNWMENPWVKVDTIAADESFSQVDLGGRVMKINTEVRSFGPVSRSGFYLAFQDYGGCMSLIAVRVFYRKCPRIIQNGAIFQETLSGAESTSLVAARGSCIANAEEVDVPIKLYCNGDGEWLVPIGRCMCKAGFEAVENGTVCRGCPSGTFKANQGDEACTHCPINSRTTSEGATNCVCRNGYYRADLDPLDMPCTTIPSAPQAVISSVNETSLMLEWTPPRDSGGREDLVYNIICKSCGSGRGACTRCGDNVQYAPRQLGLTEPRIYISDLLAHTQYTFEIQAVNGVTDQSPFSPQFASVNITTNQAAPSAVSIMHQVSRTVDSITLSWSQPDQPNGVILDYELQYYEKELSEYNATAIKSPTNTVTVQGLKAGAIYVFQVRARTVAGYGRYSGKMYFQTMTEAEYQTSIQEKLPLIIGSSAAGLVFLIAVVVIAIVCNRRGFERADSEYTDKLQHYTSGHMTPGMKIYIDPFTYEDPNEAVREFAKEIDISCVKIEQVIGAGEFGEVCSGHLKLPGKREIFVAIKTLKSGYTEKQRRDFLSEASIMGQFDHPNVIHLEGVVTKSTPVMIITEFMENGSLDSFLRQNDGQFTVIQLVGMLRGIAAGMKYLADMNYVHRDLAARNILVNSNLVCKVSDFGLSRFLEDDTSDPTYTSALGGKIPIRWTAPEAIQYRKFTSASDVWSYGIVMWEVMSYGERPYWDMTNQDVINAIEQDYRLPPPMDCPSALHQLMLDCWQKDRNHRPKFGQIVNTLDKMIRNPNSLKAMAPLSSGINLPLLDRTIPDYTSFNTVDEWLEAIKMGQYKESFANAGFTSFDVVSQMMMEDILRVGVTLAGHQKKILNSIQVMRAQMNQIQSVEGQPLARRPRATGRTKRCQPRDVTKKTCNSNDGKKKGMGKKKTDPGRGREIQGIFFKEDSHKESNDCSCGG
Chain of MERTK (Q12866 whole entry, looked up): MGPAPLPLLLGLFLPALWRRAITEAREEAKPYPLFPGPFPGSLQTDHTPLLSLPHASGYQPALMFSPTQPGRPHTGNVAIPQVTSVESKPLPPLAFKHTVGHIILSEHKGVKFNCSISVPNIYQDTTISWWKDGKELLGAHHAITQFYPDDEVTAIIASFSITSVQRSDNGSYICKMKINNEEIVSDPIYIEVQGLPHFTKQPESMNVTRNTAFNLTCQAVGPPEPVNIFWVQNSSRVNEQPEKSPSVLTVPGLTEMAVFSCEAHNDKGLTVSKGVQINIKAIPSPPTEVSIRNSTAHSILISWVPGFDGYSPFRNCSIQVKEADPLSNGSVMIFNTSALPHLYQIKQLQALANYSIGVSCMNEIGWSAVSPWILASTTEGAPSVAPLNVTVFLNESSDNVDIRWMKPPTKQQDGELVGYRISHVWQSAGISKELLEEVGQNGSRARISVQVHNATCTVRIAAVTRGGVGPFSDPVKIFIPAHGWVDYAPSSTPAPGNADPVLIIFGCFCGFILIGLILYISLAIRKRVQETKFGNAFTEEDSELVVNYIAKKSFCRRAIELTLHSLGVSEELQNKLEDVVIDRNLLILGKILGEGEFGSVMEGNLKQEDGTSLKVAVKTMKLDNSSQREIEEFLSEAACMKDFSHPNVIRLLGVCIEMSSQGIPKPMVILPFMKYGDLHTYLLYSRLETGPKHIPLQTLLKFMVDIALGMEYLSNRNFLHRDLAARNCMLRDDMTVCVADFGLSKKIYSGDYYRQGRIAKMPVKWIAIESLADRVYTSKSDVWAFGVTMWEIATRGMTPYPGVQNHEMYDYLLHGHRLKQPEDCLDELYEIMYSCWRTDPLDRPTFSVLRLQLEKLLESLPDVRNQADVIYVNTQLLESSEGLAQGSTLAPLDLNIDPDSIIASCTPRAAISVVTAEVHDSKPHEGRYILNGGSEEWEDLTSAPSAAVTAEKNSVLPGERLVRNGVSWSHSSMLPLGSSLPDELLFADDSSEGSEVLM

Row | SH2 binding enrichment [1] | SH2 binding enrichment [2] | SH2 binding enrichment [3] | Sequence | phosphorylation enrichment [4] | phosphorylation enrichment [5] | phosphorylation enrichment [6] | phosphorylation enrichment [7] | phosphorylation enrichment [8] | phosphorylation enrichment [9] | phosphorylation enrichment [10] | phosphorylation enrichment [11] | phosphorylation enrichment [12] | phosphorylation enrichment [13] | phosphorylation enrichment [14] | phosphorylation enrichment [15] | phosphorylation enrichment [16]
1 | 0.867 | 1.7 | 0.544 | KFMVGYEMLAK [GALT_Y339_Q344K] | 1.03 | 0.51 | 0.586 | 0.776 | 0.349 | 0.407 | 0.631 | 0.914 | 0.406 | 0.477 | 0.698 | 0.604 | 0.507
2 | 0.79 | 0.891 | 0.502 | KFVKMYDNHQL [MYO9A_Y203_YF] | 0.572 | 0.438 | 0.424 | 0.418 | 0.458 | 0.532 | 0.512 | 0.586 | 0.378 | 0.442 | 0.402 | 0.482 | 0.377
3 | 1.03 | 0.515 | 0.799 | KGEDFYCVTFH [FHL1_Y149_C153Y_YF] | 1.48 | 0.895 | 1.19 | 0.952 | 1.54 | 2.82 | 1.12 | 1.48 | 1.47 | 0.825 | 1.21 | 0.891 | 1.78
4 | 0.769 | 0.428 | 0.612 | KGSEGYLAAIF [NF1_Y2503_T2507I_YF] | 0.83 | 0.61 | 0.398 | 0.433 | 0.432 | 0.422 | 0.537 | 0.683 | 0.421 | 0.54 | 0.815 | 0.411 | 0.421
5 | 1.12 | 0.611 | 1.07 | KILGRYFETSS [PAX2_Y72_G76S_YF] | 0.694 | 0.529 | 0.508 | 0.469 | 0.432 | 0.358 | 0.633 | 0.648 | 0.341 | 0.424 | 0.706 | 0.406 | 0.374
6 | 0.89 | 1.62 | 0.726 | KILGRYYETSS [PAX2_Y72_G76S] | 0.65 | 0.613 | 0.344 | 0.435 | 0.447 | 0.453 | 0.541 | 0.568 | 0.51 | 0.428 | 0.595 | 0.502 | 0.424
7 | 0.974 | 0.839 | 0.633 | KKCTRYIDCDR [ASPA_Y64_L69R] | 1 | 0.72 | 0.37 | 0.417 | 0.406 | 0.461 | 0.542 | 0.832 | 0.427 | 0.402 | 0.691 | 0.445 | 0.323
8 | 0.766 | 0.666 | 0.632 | KKGMIYGGGGG [PSME1_Y249_T244K] | 0.495 | 0.447 | 0.466 | 0.407 | 0.365 | 0.381 | 0.359 | 0.467 | 0.442 | 0.3 | 0.487 | 0.363 | 0.388
9 | 0.706 | 0.559 | 0.491 | KLIMECLPFGS [JAK2_Y931_Y931C_YF] | 1.39 | 0.96 | 0.652 | 0.576 | 0.622 | 0.521 | 0.858 | 1.24 | 0.611 | 0.969 | 1.57 | 0.588 | 0.619
10 | 0.845 | 0.762 | 0.742 | KLIMEYLPYGS [JAK2_Y931] | 1.02 | 0.62 | 0.51 | 0.543 | 0.405 | 0.395 | 0.68 | 0.989 | 0.564 | 0.493 | 0.945 | 0.632 | 0.518
11 | 1.07 | 0.882 | 0.981 | KLVQLYGVCTK [BTK_Y461] | 0.887 | 0.686 | 1.91 | 0.439 | 0.439 | 0.892 | 0.532 | 0.848 | 1.25 | 1.33 | 0.773 | 1.43 | 1.25
12 | 1.1 | 0.869 | 2.41 | KLVRLYAVVTR [LYN_Y306] | 1.14 | 0.971 | 0.49 | 0.483 | 0.474 | 0.497 | 0.794 | 1.35 | 0.611 | 0.799 | 1.15 | 0.633 | 0.402
13 | 1.76 | 1.53 | 1.75 | KMKGDYYRYLA [YWHAG_Y130] | 0.747 | 0.705 | 0.816 | 8.74 | 0.393 | 2.1 | 5.52 | 0.647 | 0.73 | 1.45 | 2.55 | 1.36 | 0.594
14 | 0.848 | 0.507 | 0.707 | KNDSIYVVKGN [KIT_Y823_N822I] | 0.647 | 0.47 | 1.35 | 0.39 | 0.47 | 0.443 | 0.469 | 0.574 | 0.922 | 0.339 | 0.516 | 0.689 | 0.786
15 | 0.912 | 0.6 | 0.834 | KNNDGNIDFAE [MCFD2_Y135_Y135N_YF] | 1.26 | 1 | 0.539 | 0.447 | 0.525 | 0.589 | 0.683 | 1.07 | 0.462 | 0.504 | 1.21 | 0.673 | 0.558
16 | 1.18 | 0.739 | 0.863 | KQFWRYFPGNL [SLC25A4_Y112_A114P] | 1.02 | 0.695 | 0.524 | 0.444 | 0.469 | 0.402 | 0.676 | 0.904 | 0.496 | 0.625 | 0.919 | 0.521 | 0.35
17 | 0.711 | 0.503 | 0.681 | KRIKSYNQEND [RPGRIP1L_Y448_L447S] | 0.53 | 0.454 | 0.33 | 0.396 | 0.416 | 0.43 | 0.395 | 0.436 | 0.409 | 0.442 | 0.466 | 0.341 | 0.358
